Experimental findings from patent publication US20250250357A1 are described below.

In experiment [1] the target is human MSLN-R3 protein (Met487-Ser606 of NCBI AAH09272.1) expressed on HEK293T-hMSLN-R3 cells (human) (UniProt Q13421). Kind of experiment: FACS on HEK293T-hMSLN-R3 cells.
Experiment [2] deals with human MSLN on OVCAR3 tumor cells (human) (UniProt Q13421). Kind of experiment: FACS, OVCAR3 cells.
Experiment [3] addresses human MSLN-R3-3 polypeptide (human). Kind of experiment: ELISA; antibody 1 nM.
Experiment [4] concerns the target human MSLN full-length protein (NCBI: AAH09272.1) on stably transfected CHO-K1 or HEK293T cells (human) (UniProt Q13421). Kind of experiment: FACS on CHO-K1-hMSLN-2C8 cells; antibody […].
Experiment [5] shares this target. Kind of experiment: FACS on CHO-K1-hMSLN-2C8 cells; antibody 4 nM.
Experiment [6] has the same target. The experiment can be described thus: FACS on CHO-K1-hMSLN-2C8 cells; antibody 20 nM.
Experiment [7] shares this target. Kind of experiment: FACS on CHO-K1-hMSLN-2C8 cells; antibody 0.8 nM.
The target is the same in experiment [8]. Kind of experiment: FACS on CHO-K1-hMSLN-2C8 cells; antibody 100 nM.
Experiment [9] shares this target. The experiment can be described thus: FACS on CHO-K1-hMSLN-2C8 cells; antibody 0.032 nM.
Experiment [10] has the same target. Kind of experiment: FACS on CHO-K1-hMSLN-2C8 cells; antibody 0.0064 nM.
Experiment [11] shares this target. The experiment can be described thus: FACS on CHO-K1-hMSLN-2C8 cells; antibody 0.00128 nM.
The target of experiment [12] is monkey MSLN full-length protein (NCBI: XP_028696439.1) expressed on HEK293T-monkey MSLN cells (monkey). Kind of experiment: FACS on HEK293T-monkey MSLN cells.
Experiment [13] has as its target human MSLN-R3-3 polypeptide (human). The experiment can be described thus: ELISA, coated antigen, antibody 1 nM.
For experiment [14] the target is unchanged. Kind of experiment: ELISA, coated antigen, antibody 10 nM.
The target is the same in experiment [15]. Kind of experiment: ELISA, coated antigen, antibody 0.1 nM.
The target is the same in experiment [16]. Kind of experiment: ELISA, coated antigen, antibody 100 nM.
For experiment [17] the target is unchanged. Kind of experiment: ELISA, coated antigen, antibody 0.01 nM.
Experiment [18] shares this target. The experiment can be described thus: ELISA, coated antigen, antibody 0.001 nM.
Experiment [19] has the same target. The experiment can be described thus: ELISA, coated antigen, antibody 0.0001 nM.
The target is the same in experiment [20]. The experiment can be described thus: ELISA, coated antigen, no antibody (blank).

human MSLN on OVCAR3 tumor cells (human), sequence (Q13421 other isoform, or with tags, fused parts or gaps): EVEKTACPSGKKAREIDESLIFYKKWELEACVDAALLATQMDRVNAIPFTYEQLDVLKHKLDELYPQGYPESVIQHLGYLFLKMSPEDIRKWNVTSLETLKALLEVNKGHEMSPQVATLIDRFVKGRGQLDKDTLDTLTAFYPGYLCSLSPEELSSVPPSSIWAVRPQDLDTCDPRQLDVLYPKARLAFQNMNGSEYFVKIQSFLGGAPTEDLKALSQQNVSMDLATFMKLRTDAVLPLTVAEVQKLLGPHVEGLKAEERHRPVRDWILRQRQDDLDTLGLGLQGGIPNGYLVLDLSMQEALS
human MSLN-R3 protein (Met487-Ser606 of NCBI AAH09272.1) expressed on HEK293T-hMSLN-R3 cells (human), sequence (Q13421 495-614): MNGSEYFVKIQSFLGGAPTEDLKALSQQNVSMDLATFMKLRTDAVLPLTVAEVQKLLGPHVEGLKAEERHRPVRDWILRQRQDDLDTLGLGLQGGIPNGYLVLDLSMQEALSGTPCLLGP

B1: S009-F2.47.1 (antibody, human IgG1, kappa, V domains shown)
VH: QVQLQQPGAELVKPGASVKLSCKASGYTFTSYWMHWVKQRPGQGLEWIGMIHPNSGSTNYNEKFKSKATLTVDKSSSTAYMQLSSLTSEDSAVYYCARPVVPYWYFDVWGTGTTVTVSS
VL: DIVMTQSQKFMSTTVGDRVSITCKASQNVGTAVAWYQQKPGQSPKLLIYSASNRYTGVPDRFTGSGSGTDFTLTISNMQSEDLADYFCQQSSSYPLTFGAGTKLELKR
Turning to B1, the Maximum mean fluorescence intensity in experiment [1] was determined as 4580.

B2: F3.38.10-L2H3a (scFv, not shown: small tags and cut ends)
scFv: DIVMTQSPDSLAVSLGERATINCRSSQSLIHSDGNTYLQWYQQKPGQSPKLLIYKVSNRFSGVPDRFSGSGSGTDFTLTISSLQAEDVAVYYCSQTTHVPFTFGQGTKLEIKGGGGSGGGGSGGGGSEVQLVQSGAEVKKPGASVKVSCKASGYIFTDYYMNWVRQAPGQRLEWMGVINPKQGVISHNQKFKGRVTITVDKSANTAYMELSSLRSEDTAVYYCANYGSRFYAMDYWGQGTTVTVSS
B2: the Maximum MFI in [2] is 499 MFI.

B3: Tab107 (YP3, hIgG1) (antibody, V domains shown)
VH: QEQLVESGGGLVQPGASLTLTCTASGIDFSRYYMCWVRQAPGKGLEGIACIYIGGSGSTYYASWAKGRFTISKASSTTVTLQMTSLTAADTATYFCARGTNLNYIFRLWGPGTLVTVSS
VL: DVVMTQTPSPVSAAVGGTVTIKCQASQSINNGLAWYQQKPGQPPRLLIYSASNLESGVPSRFKGSGSGTEFTLTISDLECDDAATYYCQCIWDGNSYVNAFGGGTEVVVRT
In the case of B3, in experiment [3], the OD450 nm is 0.07. The FACS fluorescence intensity in experiment [4] came to 264; in experiment [5], 2960; in [6] it was 6930; in [7] it was 767; in experiment [8] it was 7860; in experiment [9], 120. Also, the FACS fluorescence intensity in experiment [10] came to 70; in [11], 63.

B4: F3.80.22-H17 (scFv, not shown: small tags and cut ends)
scFv: EVQLVQSGAEVKKPGATVKISCKVSGYTFTDYEIHWVQQAPGKGLEWMGAFDPEIGGSAYNQKFKDRVTITADKSTDTAYMELSSLRSEDTAVYYCTDYYGSSSGYFDVWGQGTTVTVSSGGGGSGGGGSGGGGSDIVMTQTPLSLPVTPGEPASISCRSSQSLEHNDGNTYLHWFLQKPGQSPQLLIYKVSNRFSGVPDRFSGSGSGTDFTLKISRVEAEDVGVYYCSQSTHVPFTFGQGTKLEIK
As for B4, in [2], the Maximum MFI turned out to be 456 MFI.

B5: S009-F1.62.9 (antibody, human IgG1, kappa, V domains shown)
VH: EVQLQQSGADLVKPGASVKLSCTVFGLNFKDTFMHWVRQRPEQGLEWIGRIDPANDNSIYGPKFQDKATITADTSSNTAYLHLSSLTSEDTAVYYCLYFDNWGHGTTLTVSS
VL: DIVMTQAASSEPVTPGESVSISCRSDKSLLHSNGHNYLYWFLQRPGQSPHLLIYRMSNLASGVPDRFSGSGSGTAFTLRISRVEAEDVGVYYCMQHLEYPLTFGAGTKLELKR
B5 returned a Maximum mean fluorescence intensity in experiment [12] of 965.

B6: Tab106 (YP218, hIgG1) (antibody, V domains shown)
VH: QQQLEESGGGLVKPEGSLTLTCKASGFDLGFYFYACWVRQAPGKGLEWIACIYTAGSGSTYYASWAKGRFTISKASSTTVTLQMTSLAAADTATYFCARSTANTRSTYYLNLWGPGTLVTVSS
VL: DVVMTQTPASVSEPVGGTVTIKCQASQRISSYLSWYQQKPGQRPKLLIFGASTLASGVPSRFKGSGSGTEYTLTISDLECADAATYYCQSYAYFDSNNWHAFGGGTEVVVRT
Consider B6, for which, in experiment [3], the OD450 nm was 0.98. The OD450 in experiment [13] came to 0.33; in experiment [14], 1.35; in experiment [15], 0.08; in experiment [16], 1.94; in experiment [17], 0.05; in experiment [18] it was 0.05. For the same molecule, the OD450 in [19] worked out at 0.06; in experiment [20], 0.07. For the same molecule, the FACS fluorescence intensity in experiment [4] was determined as 270; in experiment [5] it was 2780; in [6], 6270; in experiment [7], 812; in [8], 6720; in experiment [9], 119. Moreover, the results for the FACS fluorescence intensity in experiment [10] and in experiment [11] were 77 and 68, respectively.

B7: F3.80.22-H3 (scFv, not shown: small tags and cut ends)
scFv: DIVMTQTPLSLPVTPGEPASISCRSSQSLEHNNGNTYLHWFLQKPGQSPQLLIYKVSNRFSGVPDRFSGSGSGTDFTLKISRVEAEDVGVYYCSQSTHVPFTFGQGTKLEIKGGGGSGGGGSGGGGSEVQLVQSGAEVKKPGATVKISCKASGYTFTDYEIHWVQQAPGKGLEWMGAFDPEIGGSAYNQKFKDRVTITADKSTSTAYMELSSLRSEDTAVYYCTDYYGSSSGYFDVWGTGTTVTVSS
The molecule B7 displayed a Maximum MFI in [2] of 502 MFI.

B8: F3.80.22-H6 (scFv, not shown: small tags and cut ends)
scFv: DIVMTQTPLSLPVTPGEPASISCRSSQSLEHNDGNTYLHWFLQKPGQSPQLLIYKVSNRFSGVPDRFSGSGSGTDFTLKISRVEAEDVGVYYCSQSTHVPFTFGQGTKLEIKGGGGSGGGGSGGGGSEVQLVQSGAEVKKPGATVKISCKASGYTFTDYEIHWVQQAPGKGLEWMGAFDPEIGGSAYNQKFKDRVTITADKSTSTAYMELSSLRSEDTAVYYCTDYYGSSSGYFDVWGQGTTVTVSS
B8 came in with a Maximum MFI in experiment [2] of 473 MFI.

B9: F3.80.22-H4 (scFv, not shown: small tags and cut ends)
scFv: DIVMTQTPLSLPVTPGEPASISCRSSQSLEHNNGNTYLHWFLQKPGQSPQLLIYKVSNRFSGVPDRFSGSGSGTDFTLKISRVEAEDVGVYYCSQSTHVPFTFGQGTKLEIKGGGGSGGGGSGGGGSEVQLVQSGAEVKKPGATVKISCKASGYTFTDYEIHWVQQAPGKGLEWMGAFDPEIGGSAYNQKFKDRVTITADKSSSTAYMELSSLRSEDTAVYYCTDYYGSSSGYFDVWGTGTTVTVSS
Molecule B9 came in with a Maximum MFI in [2] of 505 MFI.

B10: F3.80.22-H8 (scFv, not shown: small tags and cut ends)
scFv: DIVMTQTPLSLPVTPGEPASISCRSSQSLEHNDGNTYLHWFLQKPGQSPQLLIYKVSNRFSGVPDRFSGSGSGTDFTLKISRVEAEDVGVYYCSQSTHVPFTFGQGTKLEIKGGGGSGGGGSGGGGSEVQLVQSGAEVKKPGATVKISCKASGYTFTDYEIHWVQQAPGKGLEWMGAFDPEIGGSAYNQKFKDRVTITADKSSSTAYMELSSLRSEDTAVYYCTDYYGSSSGYFDVWGTGTTVTVSS
For B10, in [2], the Maximum MFI came to 502 MFI.

B11: F3.80.22-H7 (scFv, not shown: small tags and cut ends)
scFv: DIVMTQTPLSLPVTPGEPASISCRSSQSLEHNDGNTYLHWFLQKPGQSPQLLIYKVSNRFSGVPDRFSGSGSGTDFTLKISRVEAEDVGVYYCSQSTHVPFTFGQGTKLEIKGGGGSGGGGSGGGGSEVQLVQSGAEVKKPGATVKISCKASGYTFTDYEIHWVQQAPGKGLEWMGAFDPEIGGSAYNQKFKDRVTITADKSTSTAYMELSSLRSEDTAVYYCTDYYGSSSGYFDVWGTGTTVTVSS
Molecule B11 had a Maximum MFI in [2] of 479 MFI.

B12: S009-F2.58.8 (antibody, human IgG1, kappa, V domains shown)
VH: QVQLLQSGAELAKPGASVKLSCKASGYTFTSYWVHWVKQRPGQGLEWIGYINPNSGYTKYNQKFKDKATLTADKSSSTAYMQLSSLTYEDSAVYYCADHYYGSSRDYFDYWGQGTTLTVSS
VL: QIVLTQSPAIMSASPGEKVTMTCSASSSVSYMYWYQQRPGSSPRLLIYDTSNLASGVPVRFSGSGSGTSYSLTISRMEAEDAATYYCQQWNSYPYTFGGGTKLEIKR
Regarding B12, in [12], the Maximum mean fluorescence intensity is 1000.

B13: S009-F1.59.1 (antibody, human IgG1, kappa, V domains shown)
VH: EVKLEGSGGGLVQPGGSMMLSCVATGFTFSSYWMNWVRQSPDRGLEWVAEIRLKSNGFAAFYAESVKGRFTISRDDSKSSVYLQMNNLRTEDTGIYYCTYFVHWGQGILVTVSE
VL: DIVLTQSPTSLAVSLGQRATISCRTSESVEYFGTILIQWYQQKPGQPPKLLIFGASNVESGVPARFSGSGSGTDFSLNIHPVEEEDIAMYFCQQNRKVPYTFGGGTTLELKR
For the molecule B13, the Maximum mean fluorescence intensity in experiment [12] worked out at 1420.
